The target in one test is T1, M. mulatta Gal-10 (Macaca mulatta, UniProt A0AA82WNZ0).
T1 sequence (A0AA82WNZ0 4-142): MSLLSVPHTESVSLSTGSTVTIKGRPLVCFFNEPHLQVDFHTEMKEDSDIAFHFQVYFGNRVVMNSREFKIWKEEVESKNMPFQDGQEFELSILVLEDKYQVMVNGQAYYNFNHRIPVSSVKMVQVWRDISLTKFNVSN
Kind of test: inhibition of hemagglutination of chicken erythrocytes. To be noted: 10 mM Tris-HCl, 150 mM NaCl, pH 7.5, on ice, 60 min; carbohydrate binding site. It counts as cell-based.

For test [1], the target named is Macaca fascicularis galectin-10 (Macaca fascicularis). In words: SEC.
For test [2], the target named is Macaca mulatta galectin-10 (Macaca mulatta). Kind of test: SEC.

Experimental findings from article PMC10195141 (Acta Biochimica et Biophysica Sinica, 2023) are described below.

≈ marks a conversion by molar mass, not a printed value.

`OC[C@H]1O[C@@H](O[C@H]2[C@H](O)[C@@H](O)C(O)O[C@@H]2CO)[C@H](O)[C@@H](O)[C@H]1O` (stereo partly drawn) [lactose] returned an MIC at M. mulatta Gal-10 of 6.25 mM (≈ 2140 µg/mL).
As to “Macaca fascicularis galectin-10 (natural protein)”, the stoichiometry N in test [1] came to 2.
“Macaca mulatta galectin-10 (natural protein)” displayed a stoichiometry N in test [2] of 2.
